Assays:
S6K1[412E] = experiment: Activation of S6K1[412E] by PDK1 PIF pocket mutants; format: biochemical, human
Procedure: (§1) FIG. 20. Effect of PIFtide on the activation of S6K1 and SGK1 by PDK1 PIF pocket mutants (155A, 115A, 119A, 150A). GST-PDK1, GST-PDK1 L155E, 155A, 115A, 119A and 150A were tested for their ability to activate His-S6K1 412E and GST-SGK1 422D. The phosphorylation and activation of substrates was performed as described in FIG. 17. When PIFtide was included in the reaction, it was pre-incubated on ice for ˜15 min until the reaction was initiated with the addition of ATP-Mg.
(§2) Activation of AGC kinase PDK1 substrates. Phosphorylation reactions were carried out as above except that non-radioactive ATP replaced [γ-^32P]ATP. Following 10 min at 30° C., cocktail (30 μl) containing 50 mM Tris-HCl pH 7.5, 0.1% (by vol) 2-mercaptoethanol, 10 mM magnesium chloride, […], 0.5 μM microcystin-LR and 100 μM peptide substrate crosstide (GRPRTSSFAEG) and [γ-^32P]ATP (˜600 c.p.m./pmol). Reactions were stopped by the addition of 25 μl of 0.2 M EDTA pH 8.0, spotted onto P81 phosphocellulose paper, washed and analysed as described for the assay of MAP kinase. The amount of PDK1 was in the assay was varied so that the assay was in the linear range. One unit of activity is deficed as phosphorylation 1 nmol of substrate in 1 min.

SGK1[T422D] = experiment: Activation of SGK1[T422D] by PDK1 PIF pocket mutants; format: biochemical
Procedure: as §1, §2

| Molecule | rate of activation of S6K1[412E] compared with wild type PDK1 (S6K1[412E]) | rate of activation of SGK1[T422D] compared with wild type PDK1 (SGK1[T422D]) |
| --- | --- | --- |
| K115A: PDK1 mutant, Lys115 to Ala in the PIF-binding pocket (protein, left off: small tags and cut ends) MARTTSQLYDAVPIQSSVVLCSCPSPSMVRTQTESSTPPGIPGGSRQGPAMDGTAAEPRPGAGSLQHAQPPPQPRKKRPEDFKFGKILGEGSFSTVVLARELATSREYAIKILEARHIIKENKVPYVTRERDVMSRLDHPFFVKLYFTFQDDEKLYFGLSYAKNGELLKYIRKIGSFDETCTRFYTAEIVSALEYLHGKGIIHRDLKPENILLNEDMHIQITDFGTAKVLSPESKQARANSFVGTAQYVSPELLTEKSACKSSDLWALGCIIYQLVAGLPPFRAGNEYLIFQKIIKLEYDFPEKFFPKARDLVEKLLVLDATKRLGCEEMEGYGPLKAHPFFESVTWENLHQQTPPKLTAYLPAMSEDDEDCYGNYDNLLSQFGCMQVSSSSSSHSLSASDTGLPQRSGSNIEQYIHDLDSNSFELDLQFSEDEKRLLLEKQAGGNPWHQFVENNLILKMGPVDKRKGLFARRRQLLLTEGPHLYYVDPVNKVLKGEIPWSQELRPEAKNFKTFFVHTPNRTYYLMDPSGNAHKWCRKIQEVWRQRYQSHPDAAVQ | only marginally lower | markedly reduced |
| Q150A: PDK1 mutant, Gln150 to Ala (protein, left off: small tags and cut ends, PDK1 mutant, Gln150 to Ala) MARTTSQLYDAVPIQSSVVLCSCPSPSMVRTQTESSTPPGIPGGSRQGPAMDGTAAEPRPGAGSLQHAQPPPQPRKKRPEDFKFGKILGEGSFSTVVLARELATSREYAIKILEKRHIIKENKVPYVTRERDVMSRLDHPFFVKLYFTFADDEKLYFGLSYAKNGELLKYIRKIGSFDETCTRFYTAEIVSALEYLHGKGIIHRDLKPENILLNEDMHIQITDFGTAKVLSPESKQARANSFVGTAQYVSPELLTEKSACKSSDLWALGCIIYQLVAGLPPFRAGNEYLIFQKIIKLEYDFPEKFFPKARDLVEKLLVLDATKRLGCEEMEGYGPLKAHPFFESVTWENLHQQTPPKLTAYLPAMSEDDEDCYGNYDNLLSQFGCMQVSSSSSSHSLSASDTGLPQRSGSNIEQYIHDLDSNSFELDLQFSEDEKRLLLEKQAGGNPWHQFVENNLILKMGPVDKRKGLFARRRQLLLTEGPHLYYVDPVNKVLKGEIPWSQELRPEAKNFKTFFVHTPNRTYYLMDPSGNAHKWCRKIQEVWRQRYQSHPDAAVQ | only marginally lower | markedly reduced |
| L155A: PDK1 mutant, Leu155 to Ala (protein, left off: a dimerising Fc or GST; small tags and cut ends, PDK1 mutant, Leu155 to Ala) MARTTSQLYDAVPIQSSVVLCSCPSPSMVRTQTESSTPPGIPGGSRQGPAMDGTAAEPRPGAGSLQHAQPPPQPRKKRPEDFKFGKILGEGSFSTVVLARELATSREYAIKILEKRHIIKENKVPYVTRERDVMSRLDHPFFVKLYFTFQDDEKAYFGLSYAKNGELLKYIRKIGSFDETCTRFYTAEIVSALEYLHGKGIIHRDLKPENILLNEDMHIQITDFGTAKVLSPESKQARANSFVGTAQYVSPELLTEKSACKSSDLWALGCIIYQLVAGLPPFRAGNEYLIFQKIIKLEYDFPEKFFPKARDLVEKLLVLDATKRLGCEEMEGYGPLKAHPFFESVTWENLHQQTPPKLTAYLPAMSEDDEDCYGNYDNLLSQFGCMQVSSSSSSHSLSASDTGLPQRSGSNIEQYIHDLDSNSFELDLQFSEDEKRLLLEKQAGGNPWHQFVENNLILKMGPVDKRKGLFARRRQLLLTEGPHLYYVDPVNKVLKGEIPWSQELRPEAKNFKTFFVHTPNRTYYLMDPSGNAHKWCRKIQEVWRQRYQSHPDAAVQ | only marginally lower | markedly reduced |
| I119A: PDK1 mutant, Ile119 to Ala (protein, left off: small tags and cut ends, PDK1 mutant, Ile119 to Ala) MARTTSQLYDAVPIQSSVVLCSCPSPSMVRTQTESSTPPGIPGGSRQGPAMDGTAAEPRPGAGSLQHAQPPPQPRKKRPEDFKFGKILGEGSFSTVVLARELATSREYAIKILEKRHIAKENKVPYVTRERDVMSRLDHPFFVKLYFTFQDDEKLYFGLSYAKNGELLKYIRKIGSFDETCTRFYTAEIVSALEYLHGKGIIHRDLKPENILLNEDMHIQITDFGTAKVLSPESKQARANSFVGTAQYVSPELLTEKSACKSSDLWALGCIIYQLVAGLPPFRAGNEYLIFQKIIKLEYDFPEKFFPKARDLVEKLLVLDATKRLGCEEMEGYGPLKAHPFFESVTWENLHQQTPPKLTAYLPAMSEDDEDCYGNYDNLLSQFGCMQVSSSSSSHSLSASDTGLPQRSGSNIEQYIHDLDSNSFELDLQFSEDEKRLLLEKQAGGNPWHQFVENNLILKMGPVDKRKGLFARRRQLLLTEGPHLYYVDPVNKVLKGEIPWSQELRPEAKNFKTFFVHTPNRTYYLMDPSGNAHKWCRKIQEVWRQRYQSHPDAAVQ | only marginally lower | markedly reduced |
